T1: EMB1006-MBP (Arabidopsis thaliana, UniProt Q9FGR7 44-723)
T1 sequence: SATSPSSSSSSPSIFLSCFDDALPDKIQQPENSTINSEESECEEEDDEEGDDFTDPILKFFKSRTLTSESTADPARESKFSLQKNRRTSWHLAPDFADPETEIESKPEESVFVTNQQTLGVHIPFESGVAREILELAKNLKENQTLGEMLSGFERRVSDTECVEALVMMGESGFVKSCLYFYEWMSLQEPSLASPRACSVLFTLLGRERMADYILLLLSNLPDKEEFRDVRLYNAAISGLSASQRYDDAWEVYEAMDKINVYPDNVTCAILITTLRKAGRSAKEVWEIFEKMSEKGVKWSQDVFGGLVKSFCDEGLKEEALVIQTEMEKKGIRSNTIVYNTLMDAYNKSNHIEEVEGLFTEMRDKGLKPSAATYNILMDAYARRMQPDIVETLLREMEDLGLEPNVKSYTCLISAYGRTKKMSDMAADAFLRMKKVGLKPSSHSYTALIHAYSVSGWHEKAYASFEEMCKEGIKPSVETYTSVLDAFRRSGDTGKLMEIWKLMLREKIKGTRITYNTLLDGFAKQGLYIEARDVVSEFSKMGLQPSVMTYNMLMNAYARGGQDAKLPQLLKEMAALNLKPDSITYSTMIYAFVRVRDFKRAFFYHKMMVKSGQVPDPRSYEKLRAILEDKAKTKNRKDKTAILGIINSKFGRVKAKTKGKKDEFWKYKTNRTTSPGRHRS

T2: EMB976-MBP (Arabidopsis thaliana, UniProt O04647 1-1038)
T2 sequence: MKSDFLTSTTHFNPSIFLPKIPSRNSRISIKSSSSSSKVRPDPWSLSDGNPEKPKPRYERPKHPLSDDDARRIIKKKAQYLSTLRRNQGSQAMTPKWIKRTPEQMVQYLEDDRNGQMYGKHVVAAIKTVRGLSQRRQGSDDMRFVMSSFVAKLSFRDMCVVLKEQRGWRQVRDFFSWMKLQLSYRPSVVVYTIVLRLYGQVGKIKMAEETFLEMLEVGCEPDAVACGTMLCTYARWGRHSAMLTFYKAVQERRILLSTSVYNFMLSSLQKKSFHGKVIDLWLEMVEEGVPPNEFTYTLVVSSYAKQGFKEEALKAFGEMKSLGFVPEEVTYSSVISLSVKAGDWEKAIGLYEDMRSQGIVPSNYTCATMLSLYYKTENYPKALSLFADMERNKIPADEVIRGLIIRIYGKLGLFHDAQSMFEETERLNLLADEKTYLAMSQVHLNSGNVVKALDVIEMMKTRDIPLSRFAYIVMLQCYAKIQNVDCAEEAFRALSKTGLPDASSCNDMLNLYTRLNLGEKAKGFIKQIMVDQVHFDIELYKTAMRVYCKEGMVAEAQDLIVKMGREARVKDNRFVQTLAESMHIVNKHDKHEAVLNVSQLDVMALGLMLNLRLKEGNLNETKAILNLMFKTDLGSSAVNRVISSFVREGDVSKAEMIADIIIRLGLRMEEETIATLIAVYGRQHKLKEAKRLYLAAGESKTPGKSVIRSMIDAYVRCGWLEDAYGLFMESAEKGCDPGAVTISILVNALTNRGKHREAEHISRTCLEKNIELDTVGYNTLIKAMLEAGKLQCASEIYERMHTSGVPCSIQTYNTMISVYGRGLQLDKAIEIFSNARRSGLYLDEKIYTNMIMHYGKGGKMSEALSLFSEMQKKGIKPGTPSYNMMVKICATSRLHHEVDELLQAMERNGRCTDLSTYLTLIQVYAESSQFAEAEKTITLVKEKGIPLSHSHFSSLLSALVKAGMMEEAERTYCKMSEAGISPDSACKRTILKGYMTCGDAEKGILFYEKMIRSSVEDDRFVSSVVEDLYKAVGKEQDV


What was measured:
EMB1006-MBP [1] = molecular target: T1, EMB1006-MBP; test: EMSA
EMB1006-MBP [2] = molecular target: T1, EMB1006-MBP; test: competition
EMB976-MBP = molecular target: T2, EMB976-MBP; test: EMSA

Binder	binding result (EMB1006-MBP [2])	also measured
AAUUACCAAACGUAUAGCAUUCC (ssRNA) [Cy5-clpP1-exon2]	–	binding result (EMB1006-MBP [1]): binds
AAUUACCAAACGUAUAGCAUUCC (ssRNA) [clpP1-exon2-Cold]	binds	–
UUUUUUAGAUUAAAAAAAAAUUCG (ssRNA) [clpP1-intron2-Cold]	no binding	–
GAAGAGGUUUUUCAAAUGAUA (ssRNA) [Cy5-clpP1-intron2-976]	–	binding result (EMB976-MBP): no binding

From paper doi:10.1101/2023.12.07.570680
